Test results: patent US20060246470A1 (published 2006)

How the values were obtained:
[1] = target: T1, in vitro translated, 35S-incorporated ER (UniProt P03372 1-595, 35S-incorporated (in vitro translated)); assay: GST pull-down with or without E2 or Tamoxifen (FIG. 29)
T1 construct: also called ERα
T1 sequence (looked up): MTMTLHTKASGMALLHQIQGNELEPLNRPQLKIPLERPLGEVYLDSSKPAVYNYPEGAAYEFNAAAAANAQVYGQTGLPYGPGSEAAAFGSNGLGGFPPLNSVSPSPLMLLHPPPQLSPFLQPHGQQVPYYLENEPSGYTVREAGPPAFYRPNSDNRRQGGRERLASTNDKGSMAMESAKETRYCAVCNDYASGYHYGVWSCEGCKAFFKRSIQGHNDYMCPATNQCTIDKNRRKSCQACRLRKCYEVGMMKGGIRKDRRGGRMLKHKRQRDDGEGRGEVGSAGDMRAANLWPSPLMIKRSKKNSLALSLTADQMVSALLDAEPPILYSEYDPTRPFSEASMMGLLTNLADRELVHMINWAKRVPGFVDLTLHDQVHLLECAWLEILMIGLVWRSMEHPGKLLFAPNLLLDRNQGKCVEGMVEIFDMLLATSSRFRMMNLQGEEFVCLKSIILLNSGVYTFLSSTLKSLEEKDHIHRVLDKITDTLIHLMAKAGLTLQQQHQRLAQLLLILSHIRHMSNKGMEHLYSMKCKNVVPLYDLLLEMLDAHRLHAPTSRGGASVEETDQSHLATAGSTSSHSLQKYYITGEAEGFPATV

[2] = target: T2, HER2, endogenous in MCF-7 cells (human, UniProt P04626 23-1255); assay: immunoprecipitation and immunoblot, MCF-7 cells
T2 construct: also called HER-2/neu
Procedure: In Panel B, immunoprecipitation of E or T treated MCF-7 cells was performed followed by immunoblot analysis.

[3] = target: T3, GST-RhoGDI (aa:1-81), P52565
T3 chain: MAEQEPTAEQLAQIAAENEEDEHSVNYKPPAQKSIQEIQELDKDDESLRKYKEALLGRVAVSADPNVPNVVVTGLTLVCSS

GST-ER, P03372 = target: T4, GST-ER, P03372
T4 chain: T1 sequence (looked up)

GST-RhoGDI, P52565 = target: T5, GST-RhoGDI, P52565
T5 chain: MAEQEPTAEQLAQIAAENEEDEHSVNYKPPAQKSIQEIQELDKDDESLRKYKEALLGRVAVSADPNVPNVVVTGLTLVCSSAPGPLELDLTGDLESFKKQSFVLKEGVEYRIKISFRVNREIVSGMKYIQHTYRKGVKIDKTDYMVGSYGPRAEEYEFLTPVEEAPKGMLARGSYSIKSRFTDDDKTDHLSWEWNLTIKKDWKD

B1: in vitro translated RhoGDI (other, UniProt P52565 1-204, looked up)
chain: T5 chain
[1]
  binding result: no binding

B2: EBP50 (ezrin binding protein 50), endogenous in MCF-7 cells (other, human, UniProt O14745 2-358, looked up)
chain: SADAAAGAPLPRLCCLEKGPNGYGFHLHGEKGKLGQYIRLVEPGSPAEKAGLLAGDRLVEVNGENVEKETHQQVVSRIRAALNAVRLLVVDPETDEQLQKLGVQVREELLRAQEAPGQAEPPAAAEVQGAGNENEPREADKSHPEQRELRPRLCTMKKGPSGYGFNLHSDKSKPGQFIRSVDPDSPAEASGLRAQDRIVEVNGVCMEGKQHGDVVSAIRAGGDETKLLVVDRETDEFFKKCRVIPSQEHLNGPLPVPFTNGEIQKENSREALAEAALESPRPALVRSASSDTSEELNSQDSPPKQDSTAPSSTSSSDPILDFNISLAMAKERAHQKRSSKRAPQMDWSKKNELFSNL
notes: also called NHE-RF; SLC9A3R1
[2]
  binding result: binds

B3: GST-p300 HAT (protein)
chain: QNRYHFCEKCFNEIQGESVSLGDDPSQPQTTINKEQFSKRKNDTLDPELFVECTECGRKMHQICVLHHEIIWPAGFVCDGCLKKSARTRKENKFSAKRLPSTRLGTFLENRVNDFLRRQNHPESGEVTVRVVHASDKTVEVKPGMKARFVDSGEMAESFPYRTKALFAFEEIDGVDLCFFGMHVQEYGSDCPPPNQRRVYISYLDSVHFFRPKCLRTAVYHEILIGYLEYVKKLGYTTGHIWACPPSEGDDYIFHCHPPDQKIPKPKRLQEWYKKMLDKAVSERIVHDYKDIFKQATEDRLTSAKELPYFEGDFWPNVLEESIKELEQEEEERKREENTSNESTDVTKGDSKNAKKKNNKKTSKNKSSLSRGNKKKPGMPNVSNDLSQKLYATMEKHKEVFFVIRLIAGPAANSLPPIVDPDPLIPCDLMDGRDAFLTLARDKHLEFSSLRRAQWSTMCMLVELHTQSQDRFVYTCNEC
[3]
  in vitro acetylation assay (14C-acetyl-CoA, SDS-PAGE, autoradiography): The result indicates that N-terminal of RhoGDI contains acetylation site(s).
GST-ER, P03372
  competitive in vitro acetylation assay: Purified GST-ER was acetylated by GST-p300HAT in the presence of increasing amount of GST-RhoGDI.
GST-RhoGDI, P52565
  in vitro acetylation assay (14C-acetyl-CoA, SDS-PAGE, autoradiography): RhoGDI, like ERα, is acetylated by p300.
